This is an account of results in US20200069775A1, “BRAIN OSTEOCALCIN RECEPTOR AND COGNITIVE DISORDERS” (The Trustees of Columbia University in the City of New York, priority 2017, published 2020).

This assay concerns the target T1, Gpr158 (Mus musculus, UniProt Q8C419).
T1 sequence (Q8C419 25-1200): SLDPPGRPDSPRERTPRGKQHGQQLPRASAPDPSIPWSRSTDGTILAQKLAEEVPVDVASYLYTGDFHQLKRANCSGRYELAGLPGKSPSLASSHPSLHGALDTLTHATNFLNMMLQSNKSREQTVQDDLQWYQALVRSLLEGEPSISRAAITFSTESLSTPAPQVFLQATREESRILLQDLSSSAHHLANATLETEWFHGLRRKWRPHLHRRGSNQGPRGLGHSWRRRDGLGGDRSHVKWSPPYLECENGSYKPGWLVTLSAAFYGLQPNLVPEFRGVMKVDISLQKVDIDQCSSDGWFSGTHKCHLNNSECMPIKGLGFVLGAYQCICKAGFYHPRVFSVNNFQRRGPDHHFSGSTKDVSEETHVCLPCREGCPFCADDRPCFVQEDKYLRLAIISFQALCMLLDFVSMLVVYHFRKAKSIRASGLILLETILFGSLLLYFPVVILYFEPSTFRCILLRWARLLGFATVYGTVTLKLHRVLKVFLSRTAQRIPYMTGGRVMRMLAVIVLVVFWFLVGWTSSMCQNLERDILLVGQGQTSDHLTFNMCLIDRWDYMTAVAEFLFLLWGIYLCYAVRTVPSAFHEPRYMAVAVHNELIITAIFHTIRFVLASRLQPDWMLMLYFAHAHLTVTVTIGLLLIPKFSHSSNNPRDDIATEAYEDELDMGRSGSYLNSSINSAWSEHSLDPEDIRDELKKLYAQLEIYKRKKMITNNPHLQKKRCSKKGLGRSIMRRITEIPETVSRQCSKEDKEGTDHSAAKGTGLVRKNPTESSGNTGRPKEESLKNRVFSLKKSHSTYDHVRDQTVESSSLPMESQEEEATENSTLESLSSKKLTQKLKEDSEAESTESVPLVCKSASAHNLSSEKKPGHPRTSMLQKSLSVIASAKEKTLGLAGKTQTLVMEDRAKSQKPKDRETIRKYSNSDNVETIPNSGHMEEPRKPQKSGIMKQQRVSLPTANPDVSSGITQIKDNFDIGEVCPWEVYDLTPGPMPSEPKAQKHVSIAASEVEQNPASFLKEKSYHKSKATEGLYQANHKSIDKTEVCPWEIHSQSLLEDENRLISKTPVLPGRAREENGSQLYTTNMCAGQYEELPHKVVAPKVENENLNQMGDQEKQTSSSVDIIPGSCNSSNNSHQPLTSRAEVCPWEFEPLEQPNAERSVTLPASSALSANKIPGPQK
The experiment in a line: Hippocampal lentiviral sh-Gpr158 knockdown followed by osteocalcin injection, NOR and CFC. Also on record: from tissue; host or cells: anterior hippocampus of living 3-month-old C57BL/6J male mice. In kind it is in vivo. Here is the method:
Mice were anesthetized with intra-peritoneal injection of […] (Rompun 2%; Bayer) and placed in a stereotaxic frame (900SL-KOPF). Ophthalmic eye ointment was applied to the cornea to prevent desiccation during surgery. The area around the incision was trimmed and Vetedine solution (Vetoquinol) was appplied. Lentiviruses expressing shRNA targeting Gpr158 or non-effective scramble shRNA in pGFP-C-shLentiVector were injected bilaterally into the anterior hippocampi using the following coordinates: (from bregma) anterior=−2.0 mm, lateral=+/−1.4 mm and height=-1.33 mm. Coordinates were determined using the Mouse Brain in Stereotaxic Coordinates (Paxinos and Franklin, 2008). Two weeks later, osteocalcin (10 ng) or NaCl were injected using the same coordinates. […]
Novel object recognition test (NOR): The NOR paradigm assesses the rodent's ability to recognize a novel object in the environment. […] These objects elicit equal levels of exploration as determined in pilot experiments (Denny, C. A., et al., 2012, Hippocampus 22:1188-1201; Oury, F., et al., 2013, Cell 155:228-241). […] Preference for the novel object is assessed based on the fraction of time that a mouse spends exploring the novel object compared to the familiar object. Exploration is scored from video recordings of each exposure and recorded using the Stopwatch program. […]

For the substance “osteocalcin: Recombinant osteocalcin bacterially produced, cleaved from the GST subunit; completely undercarboxylated at all three sites; full-length mouse osteocalcin (YLGASVPSPDPLEPTREQCELNPACDELSDQYGLKTAYKRIYGITI)”, under “control (scrambled shRNA) mice, osteocalcin 10 ng in anterior hippocampus”, the “memory performance (NOR)” value is reported as “enhanced memory performance”. Moreover, the “contextual fear conditioning (CFC)” value (sh-control vs sh-Gpr158 mice, osteocalcin 10 ng) is “A similar result was obtained”.
